In publication PMC2527209 one finds stoichiometry N data, which are given here for 1 substance.

The target in this experiment is non-translating mammalian (canine) ribosome (canine). Description: co-sedimentation.

On to “Sec61 complex (from UniProt P38377 1-476; P60467 1-96; P60058 1-68)”, for which the stoichiometry N – broadly, the number of molecules, sites or subunits per partner or assembly – is 0.8.
